Drawing on patent US20060228349A1 (published 2006), this text covers binding result and Kd for 7 molecules.

One assay addresses T1, Aβ1-12 peptide.
T1 peptide: DAEFRHDSGYEV
Put plainly: competition dot blot with peptides.

The next assay deals with T2, Aβ12-28 peptide.
T2 peptide: VHHQKLVFFAEDVGSNK
In words: competition dot blot with peptides.

The target in another assay is T3, biotin-Aβ1-20 (biotin (position not given)).
T3 peptide: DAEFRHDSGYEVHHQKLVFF
In words: BIACORE, biotin-Aβ1-20 as antigen; column IgG1#1.

Assay [1] addresses T4, Aβ-derived diffusible ligands (synthetic ADDLs), soluble oligomers of amyloid β1-42.
T4 construct: Oligomeric preparation of synthetic Aβ1-42 in DMSO/F12 (monomer, trimer, tetramer, 12-24mer on SDS-PAGE); number of copies not fixed; also called soluble Aβ oligomers
In words: solution equilibrium titration, free IgG by ELISA, GraFit; SE 0.09.

Assay [2] concerns the target T5, ADDL fibril preparation (Aβ1-42 fibrils).
T5 construct: Fibrillar assembly; number of copies not fixed
In words: solution equilibrium titration, free IgG by ELISA, GraFit; SE 0.47.

The target of assay [3] is T6, amyloid beta (1-40) peptide.
T6 construct: Used as monomer-like control; also called Aβ1-40; monomer preparation
In words: solution equilibrium titration, free IgG by ELISA, GraFit; SE 5.05. Background: ELISA stands for enzyme-linked immunosorbent assay.

The target in assay [4] is T7, Aβ1-20 peptide.
T7 peptide: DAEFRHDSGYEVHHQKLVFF
Put plainly: solution equilibrium titration, free IgG by ELISA, GraFit; SE 24.41.

For assay [5], the target named is T8, Biotinylated ADDL preparations (bADDLs) (N-terminal biotin).
T8 construct: Oligomer, number of copies not fixed; also called biotinylated ADDL antigen; high molecular weight 10% bADDL
In words: BIACORE, bADDL as antigen; column IgG1#1 (row shifted one column to the left). On the technique in general: SPR reads the build-up and loss of mass on a sensor chip optically.

Assay [6] deals with T9, SEC Peak 1 fraction of ADDLs (large aggregates, >50 kDa).
T9 construct: Monomer, trimer, tetramer and 12-24mer on SDS-PAGE
In words: sandwich ELISA on SEC peaks (FIG. 3).

The target of assay [7] is T10, SEC Peak 2 fraction of ADDLs (small aggregates, <30 kDa).
T10 construct: Mostly monomer with small amounts of trimer and tetramer, no 12-24mer
Put plainly: sandwich ELISA on SEC peaks (FIG. 3).

Assay [8] has as its target T4, Aβ-derived diffusible ligands …. In words: solution equilibrium titration, free IgG by ELISA, GraFit; SE 0.25.
Assay [9] deals with T5, ADDL fibril preparation (Aβ1-42 fibrils). In words: solution equilibrium titration, free IgG by ELISA, GraFit; SE 0.99.
The target in assay [10] is T6, amyloid beta (1-40) peptide. Put plainly: solution equilibrium titration, free IgG by ELISA, GraFit; SE 2.64.
In assay [11] the target is T4, Aβ-derived diffusible ligands …. In words: solution equilibrium titration, free IgG by ELISA, GraFit; SE 1.63.
Assay [12] deals with T7, Aβ1-20 peptide. Put plainly: solution equilibrium titration, free IgG by ELISA, GraFit; SE 4.39.
Assay [13] deals with T5, ADDL fibril preparation (Aβ1-42 fibrils). Put plainly: solution equilibrium titration, free IgG by ELISA, GraFit; SE 5.78.
The target in assay [14] is T6, amyloid beta (1-40) peptide. Put plainly: solution equilibrium titration, free IgG by ELISA, GraFit; SE 6.21.
The target in assay [15] is T7, Aβ1-20 peptide. Put plainly: peptide ELISA.
Assay [16] deals with T5, ADDL fibril preparation (Aβ1-42 fibrils). Put plainly: solution equilibrium titration, free IgG by ELISA, GraFit; SE 0.59.
The target of assay [17] is T4, Aβ-derived diffusible ligands …. In words: solution equilibrium titration, free IgG by ELISA, GraFit; SE 0.74.
Assay [18] has as its target T6, amyloid beta (1-40) peptide. In words: solution equilibrium titration, free IgG by ELISA, GraFit; SE 21.86.
The target of assay [19] is T4, Aβ-derived diffusible ligands …. In words: solution equilibrium titration, free IgG by ELISA, GraFit; SE 0.42.
In assay [20] the target is T5, ADDL fibril preparation (Aβ1-42 fibrils). Put plainly: solution equilibrium titration, free IgG by ELISA, GraFit; SE 1.60.
Assay [21] deals with T6, amyloid beta (1-40) peptide. Put plainly: solution equilibrium titration, free IgG by ELISA, GraFit; SE 2.07.
Assay [22] addresses T4, Aβ-derived diffusible ligands …. Put plainly: solution equilibrium titration, free IgG by ELISA, GraFit; SE 0.52.
Assay [23] addresses T5, ADDL fibril preparation (Aβ1-42 fibrils). In words: solution equilibrium titration, free IgG by ELISA, GraFit; SE 2.40.
Assay [24] has as its target T6, amyloid beta (1-40) peptide. In words: solution equilibrium titration, free IgG by ELISA, GraFit; SE 5.84.
The target of assay [25] is T7, Aβ1-20 peptide. Put plainly: solution equilibrium titration, free IgG by ELISA, GraFit; SE 7.07.
The target in assay [26] is T4, Aβ-derived diffusible ligands …. In words: solution equilibrium titration, free IgG by ELISA, GraFit; SE 1.03.
The target in assay [27] is T5, ADDL fibril preparation (Aβ1-42 fibrils). In words: solution equilibrium titration, free IgG by ELISA, GraFit; SE 3.69.
Assay [28] addresses T6, amyloid beta (1-40) peptide. Put plainly: solution equilibrium titration, free IgG by ELISA, GraFit; SE 4.14.

Where a chain is given by its changes, count along the chain named.

B1: murine anti-ADDL monoclonal antibody 20C2 (antibody, mouse IgG1, V domains shown)
VH: QVTLKESGPGILKPSQTLSLTCSLSGFSLSTSGMGVGWFRQPSGKGLEWLAHIWWDDDKSYNPSLKSRLTISKYTSRNQVFLTITSVDTADTATYYCARRQLGLRSIDAMDYWGQGTSVTVSS
VL: DVLMTQTPLSLPVSLGDQASISCRSSQSILHSNGNTYLEWYLQKPGQSPKLLIYKVSNRFSGVPDRFSGSGSGTDFTLKISRVEAEDLGVYYCFQGSLVPLTFGAGTKLELK
notes: also called Mouse-20C2
As usually defined, the Kd is the concentration at which binding is half-saturated. As to B1, the binding result with Aβ1-12 peptide and with Aβ12-28 peptide was “no binding (tested: 200 pmol peptide in 200 µL)” throughout. Also, the Kd worked out at 3.4 nM with biotin-Aβ1-20; 0.92 nM in [1]; 3.62 nM in [2]; 30.5 nM in assay [3]; 71.3 nM with Aβ1-20 peptide [4]; 4.1 nM in [5].

B2: murine anti-ADDL monoclonal antibody 2A10 (antibody, mouse IgG1, V domains shown)
VH: QVTLKESGPGILKPSQTLSLTCSFSGFSLSTSGMGVGWIRQPSGKGLEWLAHIWWDDDKYYNPSLKSQLTISKDTSRNQVFLKITSVDTADTATYYCARRSISTLVPEDYFDYWGQGTTLTVSS
VL: B1 VL with L30V, L98H
As for B2, the binding result in [6] and in assay [7] was “binds” throughout. Further, the dissociation constant Kd was determined as 2.29 nM in assay [8], 6.72 nM in [9] and 14.7 nM in [10].

B3: murine anti-ADDL monoclonal antibody 5F10 (antibody, V domains shown)
VH: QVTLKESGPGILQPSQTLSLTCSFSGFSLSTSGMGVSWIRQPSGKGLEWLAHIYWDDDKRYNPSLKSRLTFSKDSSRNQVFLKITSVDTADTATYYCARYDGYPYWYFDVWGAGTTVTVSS
VL: B1 VL with D1V, I29L, L30V, E39H, Y92F, G96S, S97T, L98H
notes: also called SF10
Turning to B3, the dissociation constant (Kd) in [11] worked out at 11.9 nM; with Aβ1-20 peptide [12] it was 6.1 nM; in assay [13], 28.9 nM; in assay [14], 23.5 nM.

B4: murine anti-ADDL monoclonal antibody 3B3 (antibody, mouse IgG1, V domains shown)
VH: DVQLVESGGGLVQPGGSRKLSCAASGFTFSSFGMHWVRQAPEKGLEWVAYISRGSSTIYYADTVKGRFTISRDNPKNTLFLQMTSLRSEDTAMYYCARGITTALDYWGQGTSVTVSS
VL: B1 VL with L30V, V56A, L98H, L101P, A105G, L111I
For B4, in the assay with Aβ1-20 peptide [15], the binding result is “binds”. In addition, the dissociation constant (Kd) in assay [16] was determined as 7.21 nM; in [17] it was 10 nM; in assay [18], 105 nM.

B5: murine anti-ADDL monoclonal antibody 4E2 (antibody, mouse IgG1, V domains shown)
VH: B2 VH with S103N, T104S, L105V, S124L
VL: B1 VL with L30V, L98H
Regarding B5, the binding result in assay [6] and in assay [7] was “binds” throughout. Moreover, the values for the Kd in assay [19], in [20] and in assay [21] were 4.26 nM, 9.4 nM and 20.2 nM, respectively.

B6: murine anti-ADDL monoclonal antibody 2D6 (antibody, mouse IgG1, V domains shown)
VH: B2 VH with L105V, V106I, T119I
VL: B1 VL with P12T, L30V, L98H
For the molecule B6, the Kd in assay [22] worked out at 5.05 nM; in [23], 14.4 nM; in assay [24], 25.7 nM; in the assay with Aβ1-20 peptide [25], 30.2 nM.

B7: murine anti-ADDL monoclonal antibody 4C2 (antibody, mouse IgG1, V domains shown)
VH: B2 VH with S103T, L105V, D112A
VL: B1 VL with T7S, L30V, L98H
For the molecule B7, the binding result in assay [6] and in [7] was “binds” throughout. Besides, the dissociation constant Kd in [26] was 8.08 nM; in [27], 19.2 nM; in assay [28], 21.9 nM.
